Key:
[1] = tested on: GFP-14-3-3β and its binding proteins; test: GFP-14-3-3β co-IP with LC-MS/MS label-free quantification, untreated versus PP1c-treated; set-up: species or system human; conditions: label-free quantification
Description: (§1) HeLa Kyoto cells expressing transiently transfected pEGFP(C1)-14-3-3β or pEGFP(C1) control plasmid, were incubated with 20 nM Calyculin A (# 9902 S, Cell Signaling Technology) for 12 min. Cells were washed twice on ice with cold PBS and after addition of 500 µL lysis buffer (100 mM NaCl, 10 mM Tris, 0.1% IGEPAL, 1 mM EDTA, 1 mM EGTA, 20 nM Calyculin A, 1x cOmplete Mini protease inhibitor cocktail (Sigma), 1 mM DTT, 1 mM MnCl2) cells were scraped from plates, lysed by 10 pushes through an injection needle (21 G, BD) and the insoluble fraction was pelleted by centrifugation (10 min, 10^4 rcf, 4 °C). Supernatants were then subjected to incubation with 1 µM recombinant phosphatase or buffer for 1 h at 30 °C. Next, we subjected samples to immunoprecipitation using α-GFP nanobodies covalently coupled to agarose beads (2 h, 4 °C, obtained from the EMBL PEPcore Core Facility). Beads were then washed three times with lysis buffer and samples were eluted in 1x LDS sample buffer (Thermo Fisher Scientific) by heating to 70 °C for 10 min.
(§2) The samples were then reduced with 25 mM dithiothreitol (10 min at 70 °C) and alkylated with 55 mM chloroacetamide (room temperature, 30 min, in the dark). Proteins were run on a precast 4–12% NuPAGE gel (ThermoFisher Scientific) for about 1 cm to concentrate the sample prior to in-gel tryptic digestion, which was performed according to the standard procedures. The peptides obtained were dried to completeness and resuspended in 12 µL of buffer A (0.1% FA), and 5 µL of sample were injected per MS measurement. The experiment was carried out in three independent replicates.
(§3) The samples were analyzed by LC-MS/MS on a Dionex Ultimate 3000 nano-HPLC coupled online to a Fusion Lumos Tribrid mass spectrometer (Thermo Fisher Scientific). Peptides were delivered to a trap column (75 µm × 2 cm, packed in-house with 5 µm C18 resin; Reprosil PUR AQ, Dr. Maisch) and washed using 0.1% FA at a flow rate of 5 µL/min for 10 min. Subsequently, peptides were transferred to an analytical column (75 µm × 45 cm, packed in-house with 3 µm C18 resin; Reprosil Gold) applying a flow rate of 300 nL/min and separated using a 60 min linear gradient from 4% to 32% LC solvent B (0.1% FA, 5% DMSO in ACN) in LC solvent A (0.1% FA in 5% DMSO). The eluate from the analytical column was sprayed via a stainless steel emitter (Thermo Fisher Scientific) at a source voltage of 2.1 kV into the mass spectrometer. The transfer capillary was heated to 275 °C. The Fusion Lumos was operated in positive ionization mode and data-dependent acquisition (DDA), automatically switching between MS1 and MS2 spectrum acquisition. Full scan MS1 spectra were recorded in the Orbitrap from 360 to 1300 m/z at a resolution of 60k (automatic gain control (AGC) target value of 4e5 charges, maximum injection time (maxIT) of 50 ms). Up to 20 peptide precursors were isolated (isolation window, 1.7 m/z; maximum injection time, 25 ms; and AGC value, 1e5), fragmented by high-energy collision-induced dissociation (HCD) using 30% normalized collision energy (NCE), and analyzed at a resolution of 15k in the Orbitrap. Precursor ions that were singly charged, unassigned, or with charge states >6+ were excluded. The dynamic exclusion duration of fragmented precursor ions was 20 s.
(§4) Peptide and protein identification and LFQ were performed using MaxQuant software (version 1.6.1.0)[64] by searching the data against all canonical protein sequences as annotated in the Swissprot reference database (human proteins only, 20193 entries, downloaded 22 March 2016, internally annotated with PFAM domains) using the embedded search engine Andromeda[65]. The MaxQuant search was performed using two variable modifications; oxidation of methionine and N-terminal protein acetylation. Carbamidomethylation on cysteines was specified as a fixed modification. Trypsin (Trypsin/P) was specified as the proteolytic enzyme with up to two allowed missed cleavage sites.

GFP-14-3-3β = GFP-14-3-3β co-IP with LC-MS/MS, untreated GFP-14-3-3β versus GFP control (14-3-3 interactome); type: binding, human; conditions: label-free quantification
Description: as §1, §2, §3, §4

| Molecule | Difference (log2), PP1 vs untreated ([1]; PP1 vs untreated) | Difference (log2), PP1 vs untreated ([1]; log2 difference, pairwise comparison PP1 vs untreated, 3 replicates each) | Difference (log2), untreated vs GFP (GFP-14-3-3β; untreated vs GFP) | Difference (log2), untreated vs GFP (GFP-14-3-3β; log2 difference, pairwise comparison untreated vs GFP, 3 replicates each) |
| --- | --- | --- | --- | --- |
| ATP2A2 (protein, UniProt P16615 1-1042, looked up) Sarcoplasmic/endoplasmic …: MENAHTKTVEEVLGHFGVNESTGLSLEQVKKLKERWGSNELPAEEGKTLLELVIEQFEDLLVRILLLAACISFVLAWFEEGEETITAFVEPFVILLILVANAIVGVWQERNAENAIEALKEYEPEMGKVYRQDRKSVQRIKAKDIVPGDIVEIAVGDKVPADIRLTSIKSTTLRVDQSILTGESVSVIKHTDPVPDPRAVNQDKKNMLFSGTNIAAGKAMGVVVATGVNTEIGKIRDEMVATEQERTPLQQKLDEFGEQLSKVISLICIAVWIINIGHFNDPVHGGSWIRGAIYYFKIAVALAVAAIPEGLPAVITTCLALGTRRMAKKNAIVRSLPSVETLGCTSVICSDKTGTLTTNQMSVCRMFILDRVEGDTCSLNEFTITGSTYAPIGEVHKDDKPVNCHQYDGLVELATICALCNDSALDYNEAKGVYEKVGEATETALTCLVEKMNVFDTELKGLSKIERANACNSVIKQLMKKEFTLEFSRDRKSMSVYCTPNKPSRTSMSKMFVKGAPEGVIDRCTHIRVGSTKVPMTSGVKQKIMSVIREWGSGSDTLRCLALATHDNPLRREEMHLEDSANFIKYETNLTFVGCVGMLDPPRIEVASSVKLCRQAGIRVIMITGDNKGTAVAICRRIGIFGQDEDVTSKAFTGREFDELNPSAQRDACLNARCFARVEPSHKSKIVEFLQSFDEITAMTGDGVNDAPALKKAEIGIAMGSGTAVAKTASEMVLADDNFSTIVAAVEEGRAIYNNMKQFIRYLISSNVGEVVCIFLTAALGFPEALIPVQLLWVNLVTDGLPATALGFNPPDLDIMNKPPRNPKEPLISGWLFFRYLAIGCYVGAATVGAAAWWFIAADGGPRVSFYQLSHFLQCKEDNPDFEGVDCAIFESPYPMTMALSVLVTIEMCNALNSLSENQSLLRMPPWENIWLVGSICLSMSLHFLILYVEPLPLIFQITPLNVTQWLMVLKISLPVILMDETLKFVARNYLEPGKECVQPATKSCSFSACTDGISWPFVLLIMPLVIWVYSTDTNFSDMFWS | 1.1435 log2 |  | -0.4794 log2 |  |
| CEP131 (protein, UniProt Q9UPN4 1-1083, looked up) Centrosomal protein of 131 kDa: MKGTRAIGSVPERSPAGVDLSLTGLPPPVSRRPGSAATTKPIVRSVSVVTGSEQKRKVLEATGPGGSQAINNLRRSNSTTQVSQPRSGSPRPTEPTDFLMLFEGSPSGKKRPASLSTAPSEKGATWNVLDDQPRGFTLPSNARSSSALDSPAGPRRKECTVALAPNFTANNRSNKGAVGNCVTTMVHNRYTPSERAPPLKSSNQTAPSLNNIIKAATCEGSESSGFGKLPKNVSSATHSARNNTGGSTGLPRRKEVTEEEAERFIHQVNQATVTIQRWYRHQVQRRGAGAARLEHLLQAKREEQRQRSGEGTLLDLHQQKEAARRKAREEKARQARRAAIQELQQKRALRAQKASTAERGPPENPRETRVPGMRQPAQELSPTPGGTAHQALKANNTGGGLPAAGPGDRCLPTSDSSPEPQQPPEDRTQDVLAQDAAGDNLEMMAPSRGSAKSRGPLEELLHTLQLLEKEPDVLPRPRTHHRGRYAWASEVTTEDDASSLTADNLEKFGKLSAFPEPPEDGTLLSEAKLQSIMSFLDEMEKSGQDQLDSQQEGWVPEAGPGPLELGSEVSTSVMRLKLEVEEKKQAMLLLQRALAQQRDLTARRVKETEKALSRQLQRQREHYEATIQRHLAFIDQLIEDKKVLSEKCEAVVAELKQEDQRCTERVAQAQAQHELEIKKLKELMSATEKARREKWISEKTKKIKEVTVRGLEPEIQKLIARHKQEVRRLKSLHEAELLQSDERASQRCLRQAEELREQLEREKEALGQQERERARQRFQQHLEQEQWALQQQRQRLYSEVAEERERLGQQAARQRAELEELRQQLEESSSALTRALRAEFEKGREEQERRHQMELNTLKQQLELERQAWEAGRTRKEEAWLLNREQELREEIRKGRDKEIELVIHRLEADMALAKEESEKAAESRIKRLRDKYEAELSELEQSERKLQERCSELKGQLGEAEGENLRLQGLVRQKERALEDAQAVNEQLSSERSNLAQVIRQEFEDRLAASEEETRQAKAELATLQARQQLELEEVHRRVKTALARKEEAVSSLRTQHEAAVKRADHLEELLEQHRRPTPSTK | 1.183 log2 |  | 0.2298 log2 |  |
| CD55 (protein, UniProt P08174 35-353, looked up) Complement decay-accelerating …: DCGLPPDVPNAQPALEGRTSFPEDTVITYKCEESFVKIPGEKDSVICLKGSQWSDIEEFCNRSCEVPTRLNSASLKQPYITQNYFPVGTVVEYECRPGYRREPSLSPKLTCLQNLKWSTAVEFCKKKSCPNPGEIRNGQIDVPGGILFGATISFSCNTGYKLFGSTSSFCLISGSSVQWSDPLPECREIYCPAPPQIDNGIIQGERDHYGYRQSVTYACNKGFTMIGEHSIYCTVNNDEGEWSGPPPECRGKSLTSKVPPTVQKPTTVNVPTTEVSPTSQKTTTKTTTPNAQATRSTPVSRTTKHFHETTPNKGSGTTS | 1.129 log2 |  | -1.764 log2 |  |

Further lines, with some results ahead:

| Difference (log2), PP1 vs untreated ([1]; PP1 vs untreated) | Difference (log2), PP1 vs untreated ([1]; log2 difference, pairwise comparison PP1 vs untreated, 3 replicates each) | Molecule | Difference (log2), untreated vs GFP (GFP-14-3-3β; untreated vs GFP) | Difference (log2), untreated vs GFP (GFP-14-3-3β; log2 difference, pairwise comparison untreated vs GFP, 3 replicates each) |
| --- | --- | --- | --- | --- |
|  | 2.782 | PKP3 (protein, UniProt Q9Y446 1-797, looked up) Plakophilin-3: MQDGNFLLSALQPEAGVCSLALPSDLQLDRRGAEGPEAERLRAARVQEQVRARLLQLGQQPRHNGAAEPEPEAETARGTSRGQYHTLQAGFSSRSQGLSGDKTSGFRPIAKPAYSPASWSSRSAVDLSCSRRLSSAHNGGSAFGAAGYGGAQPTPPMPTRPVSFHERGGVGSRADYDTLSLRSLRLGPGGLDDRYSLVSEQLEPAATSTYRAFAYERQASSSSSRAGGLDWPEATEVSPSRTIRAPAVRTLQRFQSSHRSRGVGGAVPGAVLEPVARAPSVRSLSLSLADSGHLPDVHGFNSYGSHRTLQRLSSGFDDIDLPSAVKYLMASDPNLQVLGAAYIQHKCYSDAAAKKQARSLQAVPRLVKLFNHANQEVQRHATGAMRNLIYDNADNKLALVEENGIFELLRTLREQDDELRKNVTGILWNLSSSDHLKDRLARDTLEQLTDLVLSPLSGAGGPPLIQQNASEAEIFYNATGFLRNLSSASQATRQKMRECHGLVDALVTSINHALDAGKCEDKSVENAVCVLRNLSYRLYDEMPPSALQRLEGRGRRDLAGAPPGEVVGCFTPQSRRLRELPLAADALTFAEVSKDPKGLEWLWSPQIVGLYNRLLQRCELNRHTTEAAAGALQNITAGDRRWAGVLSRLALEQERILNPLLDRVRTADHHQLRSLTGLIRNLSRNARNKDEMSTKVVSHLIEKLPGSVGEKSPPAEVLVNIIAVLNNLVVASPIAARDLLYFDGLRKLIFIKKKRDSPDSEKSSRAASSLLANLWQYNKLHRDFRAKGYRKEDFLGP |  | -1.082 |
| 1.1838 log2 |  | GNL3 (protein, UniProt Q9BVP2 1-549, looked up) Guanine nucleotide-binding …: MKRPKLKKASKRMTCHKRYKIQKKVREHHRKLRKEAKKRGHKKPRKDPGVPNSAPFKEALLREAELRKQRLEELKQQQKLDRQKELEKKRKLETNPDIKPSNVEPMEKEFGLCKTENKAKSGKQNSKKLYCQELKKVIEASDVVLEVLDARDPLGCRCPQVEEAIVQSGQKKLVLILNKSDLVPKENLESWLNYLKKELPTVVFRASTKPKDKGKITKRVKAKKNAAPFRSEVCFGKEGLWKLLGGFQETCSKAIRVGVIGFPNVGKSSIINSLKQEQMCNVGVSMGLTRSMQVVPLDKQITIIDSPSFIVSPLNSSSALALRSPASIEVVKPMEAASAILSQADARQVVLKYTVPGYRNSLEFFTVLAQRRGMHQKGGIPNVEGAAKLLWSEWTGASLAYYCHPPTSWTPPPYFNESIVVDMKSGFNLEELEKNNAQSIRAIKGPHLANSILFQSSGLTNGIIEEKDIHEELPKRKERKQEEREDDKDSDQETVDEEVDENSSGMFAAEETGEALSEETTAGEQSTRSFILDKIIEEDDAYDFSTDYV | 2.229 log2 |  |

From article PMC7367873, “Dissecting the sequence determinants for dephosphorylation by the catalytic subunits of phosphatases PP1 and PP2A” (Nature Communications, 2020)
